Laboratory results from paper PMC5737361 (Nucleic Acids Research, 2017).

Target: T1, Sulfolobus solfataricus PolB1, unlabelled (Sulfolobus solfataricus, UniProt P26811 1-882)
T1 sequence (looked up): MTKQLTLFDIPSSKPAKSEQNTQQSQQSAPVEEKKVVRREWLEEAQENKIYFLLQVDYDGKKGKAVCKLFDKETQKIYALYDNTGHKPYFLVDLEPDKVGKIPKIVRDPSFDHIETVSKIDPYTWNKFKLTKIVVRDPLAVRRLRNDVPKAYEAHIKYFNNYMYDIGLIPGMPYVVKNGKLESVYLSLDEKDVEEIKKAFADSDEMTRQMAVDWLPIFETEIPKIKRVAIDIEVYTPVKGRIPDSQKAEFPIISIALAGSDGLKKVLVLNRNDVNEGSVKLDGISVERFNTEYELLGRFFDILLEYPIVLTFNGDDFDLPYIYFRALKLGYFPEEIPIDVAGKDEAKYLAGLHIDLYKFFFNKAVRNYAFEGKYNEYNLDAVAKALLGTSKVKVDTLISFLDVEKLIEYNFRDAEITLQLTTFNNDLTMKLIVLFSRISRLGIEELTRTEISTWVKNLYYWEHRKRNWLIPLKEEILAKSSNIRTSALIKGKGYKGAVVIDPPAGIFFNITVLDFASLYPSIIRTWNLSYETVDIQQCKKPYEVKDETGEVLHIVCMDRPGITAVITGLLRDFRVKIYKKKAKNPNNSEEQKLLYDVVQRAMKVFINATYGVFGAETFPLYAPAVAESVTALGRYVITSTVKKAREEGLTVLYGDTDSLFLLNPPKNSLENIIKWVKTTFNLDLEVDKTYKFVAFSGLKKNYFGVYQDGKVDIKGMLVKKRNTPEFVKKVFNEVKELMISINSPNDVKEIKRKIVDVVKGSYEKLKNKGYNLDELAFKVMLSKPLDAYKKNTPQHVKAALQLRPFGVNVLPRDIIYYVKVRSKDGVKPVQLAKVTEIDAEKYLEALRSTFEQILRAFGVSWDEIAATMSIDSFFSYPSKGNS
Assay: SEC

binding result: binds
B1: Sulfolobus solfataricus Dpo4 (PolY), wild type, unlabelled (enzyme)
chain: MIVLFVDFDYFYAQVEEVLNPSLKGKPVVVCVFSGRFEDSGAVATANYEARKFGVKAGIPIVEAKKILPNAVYLPMRKEVYQQVSSRIMNLLREYSEKIEIASIDEAYLDISDKVRDYREAYNLGLEIKNKILEKEKITVTVGISKNKVFAKIAADMAKPNGIKVIDDEEVKRLIRELDIADVPGIGNITAEKLKKLGINKLVDTLSIEFDKLKGMIGEAKAKYLISLARDEYNEPIRTRVRKSIGRIVTMKRNSRNLEEIKPYLFRAIEESYYKLDKRIPKAIHVVAVTEDLDIVSRGRTFPHGISKETAYSESVKLLQKILEEDERKIRRIGVRFSKFIEAIGLDKFFDT
